Data as given in the Human Domainome abundance scans (Beltran et al. 2025).
± gives the uncertainty stated by the source.

B1: Activity-dependent neuroprotector homeobox protein, residues 770 to 810; numbered along this chain, Q9H2P0 (parent)
chain: FLTKYFNKQPYPTRREIEKLAASLWLWKSDIASHFSNKRKK

Variants of: B1
Experiment: abundance fitness (aPCA) (normalised: wild type 0, dead -1); higher = more abundant; growth selection in yeast, the domain comes from the species named
Details: Homo sapiens
For FLTKYFNKQPYPTRREIEKLAASLWLWLSDIASHFSNKRKK, the abundance fitness was 0.55 ± 0.048. In the case of FLTKYFNKQPYPTRREIEKLAASLWLWRSDIASHFSNKRKK, the abundance fitness is reported as -0.188 ± 0.049. In the case of FLTKYFNKQPYPTRREIEKLAASLWLWMSDIASHFSNKRKK, the abundance fitness is reported as 0.438 ± 0.06. For FLTKYFNKQPYPTRREIEKLAASLWLWNSDIASHFSNKRKK, the abundance fitness was -0.244 ± 0.076. With FLTKYFNKQPYPTRREIEKLAASLWLWVSDIASHFSNKRKK the abundance fitness was 0.508 ± 0.06. For FLTKYFNKQPYPTRREIEKLAASLWLWHSDIASHFSNKRKK, the abundance fitness was -0.421 ± 0.11. Variant FLTKYFNKQPYPTRREIEKLAASLWLWQSDIASHFSNKRKK has an abundance fitness of -0.184 ± 0.06. Work on FLTKYFNKQPYPTRREIEKLAASLWLWTSDIASHFSNKRKK yielded an abundance fitness of 0.18 ± 0.048. Work on FLTKYFNKQPYPTRREIEKLAASLWLWWSDIASHFSNKRKK yielded an abundance fitness of 0.13 ± 0.067. FLTKYFNKQPYPTRREIEKLAASLWLWFSDIASHFSNKRKK showed an abundance fitness of 0.435 ± 0.06. Variant FLTKYFNKQPYPTRREIEKLAASLWLWDSDIASHFSNKRKK has an abundance fitness of -0.514 ± 0.12. FLTKYFNKQPYPTRREIEKLAASLWLWASDIASHFSNKRKK showed an abundance fitness of 0.333 ± 0.048. FLTKYFNKQPYPTRREIEKLAASLWLWPSDIASHFSNKRKK gave an abundance fitness of 0.257 ± 0.072. Variant FLTKYFNKQPYPTRREIEKLAASLWLWISDIASHFSNKRKK has an abundance fitness of 0.445 ± 0.055. Work on FLTKYFNKQPYPTRREIEKLAASLWLWGSDIASHFSNKRKK yielded an abundance fitness of 0.048 ± 0.057. FLTKYFNKQPYPTRREIEKLAASLWLWSSDIASHFSNKRKK showed an abundance fitness of 0.028 ± 0.052. Work on FLTKYFNKQPYPTRREIEKLAASLWLWESDIASHFSNKRKK yielded an abundance fitness of -0.463 ± 0.085. FLTKYFNKQPYPTRREIEKLAASLWLWYSDIASHFSNKRKK gave an abundance fitness of -0.443 ± 0.16. FLTKYFNKQPYPTRREIEKLAASLWLWCSDIASHFSNKRKK gave an abundance fitness of 0.317 ± 0.059. Work on FLTKYFNKQPYPTRREIEKLAASLWLVKSDIASHFSNKRKK yielded an abundance fitness of -0.061 ± 0.052. FLTKYFNKQPYPTRREIEKLAASLWLYKSDIASHFSNKRKK showed an abundance fitness of -0.227 ± 0.066. Work on FLTKYFNKQPYPTRREIEKLAASLWLWKSDGASHFSNKRKK yielded an abundance fitness of -0.129 ± 0.072. Work on FLTKYFNKQPYPTRREIEKLAASLWLWKSDQASHFSNKRKK yielded an abundance fitness of -0.116 ± 0.058. Work on FLTKYFNKQPYPTRREIEKLAASLWLWKSDCASHFSNKRKK yielded an abundance fitness of -0.075 ± 0.065. With FLTKYFNKQPYPTRREIEKLAASLWLWKSDAASHFSNKRKK the abundance fitness was 0.109 ± 0.064. Variant FLTKYFNKQPYPTRREIEKLAASLWLWKSDFASHFSNKRKK has an abundance fitness of -0.197 ± 0.07. For FLTKYFNKQPYPTRREIEKLAASLWLWKSDKASHFSNKRKK, the abundance fitness was -0.276 ± 0.084. For FLTKYFNKQPYPTRREIEKLAASLWLWKSDEASHFSNKRKK, the abundance fitness was -0.23 ± 0.091. In the case of FLTKYFNKQPYPTRREIEKLAASLWLWKSDLASHFSNKRKK, the abundance fitness is reported as -0.043 ± 0.05. FLTKYFNKQPYPTRREIEKLAASLWLWKSDDASHFSNKRKK gave an abundance fitness of 0.022 ± 0.096. Work on FLTKYFNKQPYPTRREIEKLAASLWLWKSDMASHFSNKRKK yielded an abundance fitness of 0.056 ± 0.058. FLTKYFNKQPYPTRREIEKLAASLWLWKSDNASHFSNKRKK showed an abundance fitness of -0.153 ± 0.072. FLTKYFNKQPYPTRREIEKLAASLWLWKSDPASHFSNKRKK showed an abundance fitness of -0.098 ± 0.064. For FLTKYFNKQPYPTRREIEKLAASLWLWKSDRASHFSNKRKK, the abundance fitness was -0.205 ± 0.053. Variant FLTKYFNKQPYPTRREIEKLAASLWLWKSPIASHFSNKRKK has an abundance fitness of 0.056 ± 0.064. In the case of FLTKYFNKQPYPTRREIEKLAASLWLWKSYIASHFSNKRKK, the abundance fitness is reported as -0.082 ± 0.13. In the case of FLTKYFNKQPYPTRREIEKLAASLWLWKSFIASHFSNKRKK, the abundance fitness is reported as -0.257 ± 0.11. FLTKYFNKQPYPTRREIEKLAASLWLWKSQIASHFSNKRKK gave an abundance fitness of 0 ± 0.12. Work on FLTKYFNKQPYPTRREIEKLAASLWLWKSGIASHFSNKRKK yielded an abundance fitness of -0.025 ± 0.064. Work on FLTKYFNKQPYPTRREIEKLAASLWLWKSLIASHFSNKRKK yielded an abundance fitness of -0.376 ± 0.069. With FLTKYFNKQPYPTRREIEKLAASLWLWKSVIASHFSNKRKK the abundance fitness was -0.317 ± 0.11. Variant FLTKYFNKQPYPTRREIEKLAASLWLWKSAIASHFSNKRKK has an abundance fitness of -0.247 ± 0.062. FLTKYFNKQPYPTRREIEKLAASLWLWKSMIASHFSNKRKK showed an abundance fitness of -0.054 ± 0.1. Variant FLTKYFNKQPYPTRREIEKLAASLWLWKSEIASHFSNKRKK has an abundance fitness of -0.124 ± 0.1. Variant FLTKYFNKQPYPTRREIEKLAASLWLWKSRIASHFSNKRKK has an abundance fitness of -0.026 ± 0.053. For FLTKYFNKQPYPTRREIEKLAASLWLWKSTIASHFSNKRKK, the abundance fitness was -0.182 ± 0.089. With FLTKYFNKQPYPTRREIEKLAASLWLWKSWIASHFSNKRKK the abundance fitness was -0.01 ± 0.077. For FLTKYFNKQPYPTRREIEKLAASLWLWKSHIASHFSNKRKK, the abundance fitness was -0.124 ± 0.092. With FLTKYFNKQPYPTRREIEKLAASLWLWKSKIASHFSNKRKK the abundance fitness was 0.071 ± 0.1. For FLTKYFNKQPYPTRREIEKLAASLWLWKRDIASHFSNKRKK, the abundance fitness was -0.088 ± 0.073. Work on FLTKYFNKQPYPTRREIEKLAASLWLWKCDIASHFSNKRKK yielded an abundance fitness of -0.206 ± 0.11. In the case of FLTKYFNKQPYPTRREIEKLAASLWLWKLDIASHFSNKRKK, the abundance fitness is reported as -0.145 ± 0.058. FLTKYFNKQPYPTRREIEKLAASLWLWKVDIASHFSNKRKK gave an abundance fitness of -0.302 ± 0.11. In the case of FLTKYFNKQPYPTRREIEKLAASLWLWKPDIASHFSNKRKK, the abundance fitness is reported as 0.229 ± 0.098. FLTKYFNKQPYPTRREIEKLAASLWLWKMDIASHFSNKRKK showed an abundance fitness of -0.124 ± 0.14. FLTKYFNKQPYPTRREIEKLAASLWLWKFDIASHFSNKRKK showed an abundance fitness of -0.43 ± 0.2. With FLTKYFNKQPYPTRREIEKLAASLWLWKHDIASHFSNKRKK the abundance fitness was 0.077 ± 0.076. With FLTKYFNKQPYPTRREIEKLAASLWLWKQDIASHFSNKRKK the abundance fitness was 0.173 ± 0.056. With FLTKYFNKQPYPTRREIEKLAASLWLWKGDIASHFSNKRKK the abundance fitness was -0.014 ± 0.057. In the case of FLTKYFNKQPYPTRREIEKLAASLWLWKIDIASHFSNKRKK, the abundance fitness is reported as 0.031 ± 0.2. FLTKYFNKQPYPTRREIEKLAASLWLWKKDIASHFSNKRKK showed an abundance fitness of 0.208 ± 0.094. In the case of FLTKYFNKQPYPTRREIEKLAASLWLWKEDIASHFSNKRKK, the abundance fitness is reported as -0.294 ± 0.12.
